The target of data set [1] is Cap1-6xHis (aa 1-298) (C. trachomatis serovar D). The data set can be described thus: SEC; proteins eluted from Ni2+-NTA (complexes formed by co-expression in E. coli) on a 16/60 Sephacryl S-100 HR column; 10 mM Tris-HCl/50 mM phosphate buffer/150 mM NaCl pH 8.0; sizes by a low molecular weight calibration kit. A general note: Size exclusion chromatography separates by hydrodynamic size, large species first.

Data set [2] deals with the molecule itself. The data set can be described thus: cross-linking; purified 6xHis-Mcsc treated with 0.25-1 mM DSP for 20 min at 4 C; SDS-PAGE with or without 50 mM DTT; immunoblot with Mcsc antibodies. Background: Immunoblotting shows a protein as a band on a membrane.
The target in another data set is T1, Ct618-6xHis (aa 1-189) (C. trachomatis serovar D, UniProt O84623 1-189).
T1 construct: Ct618 of C. trachomatis, amino-terminal domain, aa 1-189; printed as Ct618-6xHis; also called 6xHis-tagged Ct618; amino-terminal domain of Ct618; source: E. coli BL21 DE3 (bicistronic pET-24d with Mcsc), in lysate; purified (Ni2+-NTA agarose, gel filtration)
T1 sequence: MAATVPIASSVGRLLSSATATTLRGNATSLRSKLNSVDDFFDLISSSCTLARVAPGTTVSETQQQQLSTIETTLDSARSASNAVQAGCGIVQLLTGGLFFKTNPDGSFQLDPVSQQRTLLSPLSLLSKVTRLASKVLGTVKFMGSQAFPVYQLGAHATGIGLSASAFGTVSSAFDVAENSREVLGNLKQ
Put plainly: SEC; proteins eluted from Ni2+-NTA (complexes formed by co-expression in E. coli) on a 16/60 Sephacryl S-100 HR column; 10 mM Tris-HCl/50 mM phosphate buffer/150 mM NaCl pH 8.0; sizes by a low molecular weight calibration kit. The following applies: both partners purified.

On to “Mcsc, untagged, co-expressed from a bicistronic vector (from UniProt O84262 1-163) (natural protein)”, for which the stoichiometry N (Mcsc subunits per effector protein) in data set [1] stood at 2.

B1: 6xHis-Mcsc (natural protein)
chain: MTTWTLNHNNLTKFLTHAQLEPSLERESGLIYITVPAGEHELPLFFVIRNEGEVLQLVCYFPYQIQQNQRDTTARLLHLVNRDIDIPGFGMDEEQNIIFYRLVIPCLKGEINEDLLRVYIDTIKLICDSFFHAIGLISTGNMDLDELKKQAKLENNQSDQLEP
notes: Ct260 (Mcsc) of C. trachomatis, amplified from serovar D genomic DNA; printed as 6xHis-Mcsc, vector pET15b; also called hexahistidine-tagged Mcsc (Ct260); 6xHis-tagged Mcsc dimers; source: E. coli BL21 DE3 (pET15b-Mcsc), purified (Ni2+-NTA agarose, gel filtration)
What is called stoichiometry N is the number of molecules, sites or subunits per partner or assembly. Turning to B1, the “stoichiometry N” value in data set [2] turned out to be 2.

B2: Mcsc, untagged, co-expressed from a bicistronic vector (natural protein)
chain: MTTWTLNHNNLTKFLTHAQLEPSLERESGLIYITVPAGEHELPLFFVIRNEGEVLQLVCYFPYQIQQNQRDTTARLLHLVNRDIDIPGFGMDEEQNIIFYRLVIPCLKGEINEDLLRVYIDTIKLICDSFFHAIGLISTGNMDLDELKKQAKLENNQSDQLEP
notes: Ct260 (Mcsc) of C. trachomatis, amplified from serovar D genomic DNA; also called untagged Mcsc; Ct260; source: E. coli BL21 DE3 (bicistronic pET-24d), in lysate; co-purified with the 6xHis-tagged effector (Ni2+-NTA agarose, gel filtration)
On to B2, for which the “stoichiometry N” value with Ct618-6xHis (aa 1-189) is 2 Mcsc subunits per effector protein.

The values above are taken from article PMC2734247, “The Chlamydia Type III Secretion System C-ring Engages a Chaperone-Effector Protein Complex” (PLoS Pathogens, 2009).
